The text below walks through data of patent publication US7741096B2, “Crystal structure of hepatocyte growth factor activator complexed with Kunitz domain inhibitor” (Genentech, Inc., priority 2004, dated 2010).

What is called IC50 is the concentration at which inhibition is half-maximal.

The target in one experiment is T1, Thrombin (Homo sapiens, UniProt P00734).
T1 construct: purchased Haematologic Technologies
Description: Chromogenic substrate enzyme inhibition assay, thrombin. The conditions noted are these: substrate S2366, read-out: KD1 IC50. The class given is biochemical. From the text:
(§1) The following synthetic substrates were used to measure enzyme activities: Spectrozyme® fvIIa (American Diagnostica, Stamford, Conn.) for HGFA and ChromozymtPA (Roche Molecular Biochemicals, Indianapolis, Ind.) for tissue factor/FVIIa. The following substrates were from Diapharma, Westchester, Ohio: S2222 for factor Xa, S2302 for plasma kallikrein, S2366 for activated protein C, thrombin, hepsin and plasmin, S2444 for uPA, S2288 for factor XIa, FXIIa and tPA, S2765 for matriptase complement factor C1s, chymotrypsin and trypsin. Except for bovine trypsin (Worthington, Lakewood, N.J.), all enzymes used were of human origin. Factor Xa, factor XIa, thrombin, activated protein C and plasmin were from Haematologic Technologies (Essex Junction, Vt.). […]
(§2) The inhibitory activity of KD1 towards a panel of trypsin-like serine proteases was examined using assay conditions as described for measuring the inhibitory activity of HAI-1B ectodomain. […] After 20 min. incubation at room temperature, the appropriate substrate was added and the linear rates of substrate hydrolysis were determined by measuring the change in absorbance at 405 nm on a kinetic microplate reader (Molecular Devices, Sunnyvale, Calif.). […]

The next experiment addresses T2, uPA (Homo sapiens, UniProt P00749).
T2 construct: purchased Chemicon
Description: Chromogenic substrate enzyme inhibition assay, uPA. The experiment is classed as biochemical. The note with it: substrate S2444, read-out: KD1 IC50.
Source text: as §1, §2

As to “KD1: The first Kunitz domain of human HAI-1B, amino acids 246-303 (SEQ ID NO: 4), with polyhistidine leader, expressed in E. coli”, the IC50 in the experiment with Thrombin and with uPA was more than 1 µM in each case.
